The text below walks through data of patent publication US20220403048A1, “BINDING MOLECULES TO ARGINASE II [ARG2]” (Cancer Research Technology Limited, priority 2019, published 2022).

The assay deals with T1, ARG2 (Homo sapiens, UniProt P78540).
T1 sequence (P78540 23-354): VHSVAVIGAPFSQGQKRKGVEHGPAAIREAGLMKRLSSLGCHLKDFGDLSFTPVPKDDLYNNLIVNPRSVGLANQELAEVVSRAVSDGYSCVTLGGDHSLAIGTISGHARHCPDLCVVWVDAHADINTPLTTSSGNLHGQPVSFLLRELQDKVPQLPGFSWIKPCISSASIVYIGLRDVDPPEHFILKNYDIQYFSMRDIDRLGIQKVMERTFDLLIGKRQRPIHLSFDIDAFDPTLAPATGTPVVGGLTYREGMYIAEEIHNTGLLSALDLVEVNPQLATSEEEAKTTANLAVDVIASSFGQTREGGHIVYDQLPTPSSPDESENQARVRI
The experiment in a line: T cell proliferation assay (BrdU, 72 hours) with exogenous ARG2. The arrangement: human ARG2 (aa23-354); His10 (C); made in house; host or cells: E. coli BL21 (DE3). The format is cell-based. As for the experimental part: This assay served to provide in vitro evidence of functional efficacy for each antibody.
Briefly, Leukocyte cones (NHS Blood and Transplant, Watford, UK) underwent Ficoll Plaque (GE, Sweden; Cat: 17-1440-02) gradient separation, PBMC's were extracted and pan T cell population isolated by negative selection using the Human T Cell Enrichment Kit (Stemcell Technologies, France; Cat: 19051) according to the manufacturer's instructions.
40000 cells/well were seeded in complete growth media (RMPI 1640, 5% Human Serum Albumin) into a 96 well clear TC treated microplate (Greiner-Bio One, Germany; Cat: 655180). T Cells were activated by the addition of ImmunoCult CD3/CD28 (Stemcell Technologies, France; Cat: 10971) at a dilution of 1:40 directly into wells and the plate incubated 37° C., 5% CO2 for 45 minutes.
To determine EC50's of test antibodies, a dilution series was created in sterile TBS at 8× the final assay concentration was added to the assay plate containing cells. Plate was incubated for 30 minutes at 37° C., 5% CO2.
ARG2 was added to relevant wells of the plate at a final concentration of 15 μg/ml. The equivalent volume of ARG2 vehicle and test antibody vehicle was added to relevant control wells. […]
Calculated data was expressed as % of control (Equation 3) and graphical plots were constructed using a four parameter fit and EC50's determined using model 205 in XLFit (IDBS, UK). […]

By EC50 is commonly meant the concentration that produces a half-maximal response.

B1: C0020065: anti-ARG2 antibody, alternate lead isolation clone, VH SEQ ID NO: 2, VL SEQ ID NO: 7 (antibody, listed as Homo sapiens, V domains shown)
VH: GVNLRESGGGVVQPGRSLRLSCAASGFTFSSYAMHWVRQAPGKGLEWVAVISYDGSNKYYVDSVKGRFTISRDNSKNTLYLQMNSLRAEDTAVYYCARDSSQLWFDYWGRGTLVTVSS
VL: QSVVTQPPSVSGAPGQRVTISCTGSSSNIGTGYDVHWYQQLPGTAPKLLIYGNSNRPSGVPDRFSGSKSGTSASLAITGLQAEDEADYYCQSYDSSLSGSVVFGGGTQLTVL
modifications: C0020065
For the molecule B1, the EC50 (In Presence of rhARG2) is more than 2 µM. In addition, the “Maximum % Proliferation” value (In Presence of rhARG2, NHLA value at 0.444 mM) was 49%.
